Measured values reported in IntAct's records for PubMed 25910212.

B1: Tribbles homolog 3 (Homo sapiens), Q96RU7 (parent)
chain: MRATPLAAPAGSLSRKKRLELDDNLDTERPVQKRARSGPQPRLPPCLLPLSPPTAPDRATAVATASRLGPYVLLEPEEGGRAYQALHCPTGTEYTCKVYPVQEALAVLEPYARLPPHKHVARPTEVLAGTQLLYAFFTRTHGDMHSLVRSRHRIPEPEAAVLFRQMATALAHCHQHGLVLRDLKLCRFVFADRERKKLVLENLEDSCVLTGPDDSLWDKHACPAYVGPEILSSRASYSGKAADVWSLGVALFTMLAGHYPFQDSEPVLLFGKIRRGAYALPAGLSAPARCLVRCLLRREPAERLTATGILLHPWLRQDPMPLAPTRSHLWEAAQVVPDGLGLDEAREEEGDREVVLYG
B2: SWI/SNF-related matrix-associated actin-dependent regulator of chromatin subfamily A member 2 (Homo sapiens), P51531-1 (parent)
chain: MSTPTDPGAMPHPGPSPGPGPSPGPILGPSPGPGPSPGSVHSMMGPSPGPPSVSHPMPTMGSTDFPQEGMHQMHKPIDGIHDKGIVEDIHCGSMKGTGMRPPHPGMGPPQSPMDQHSQGYMSPHPSPLGAPEHVSSPMSGGGPTPPQMPPSQPGALIPGDPQAMSQPNRGPSPFSPVQLHQLRAQILAYKMLARGQPLPETLQLAVQGKRTLPGLQQQQQQQQQQQQQQQQQQQQQQQPQQQPPQPQTQQQQQPALVNYNRPSGPGPELSGPSTPQKLPVPAPGGRPSPAPPAAAQPPAAAVPGPSVPQPAPGQPSPVLQLQQKQSRISPIQKPQGLDPVEILQEREYRLQARIAHRIQELENLPGSLPPDLRTKATVELKALRLLNFQRQLRQEVVACMRRDTTLETALNSKAYKRSKRQTLREARMTEKLEKQQKIEQERKRRQKHQEYLNSILQHAKDFKEYHRSVAGKIQKLSKAVATWHANTEREQKKETERIEKERMRRLMAEDEEGYRKLIDQKKDRRLAYLLQQTDEYVANLTNLVWEHKQAQAAKEKKKRRRRKKKAEENAEGGESALGPDGEPIDESSQMSDLPVKVTHTETGKVLFGPEAPKASQLDAWLEMNPGYEVAPRSDSEESDSDYEEEDEEEESSRQETEEKILLDPNSEEVSEKDAKQIIETAKQDVDDEYSMQYSARGSQSYYTVAHAISERVEKQSALLINGTLKHYQLQGLEWMVSLYNNNLNGILADEMGLGKTIQTIALITYLMEHKRLNGPYLIIVPLSTLSNWTYEFDKWAPSVVKISYKGTPAMRRSLVPQLRSGKFNVLLTTYEYIIKDKHILAKIRWKYMIVDEGHRMKNHHCKLTQVLNTHYVAPRRILLTGTPLQNKLPELWALLNFLLPTIFKSCSTFEQWFNAPFAMTGERVDLNEEETILIIRRLHKVLRPFLLRRLKKEVESQLPEKVEYVIKCDMSALQKILYRHMQAKGILLTDGSEKDKKGKGGAKTLMNTIMQLRKICNHPYMFQHIEESFAEHLGYSNGVINGAELYRASGKFELLDRILPKLRATNHRVLLFCQMTSLMTIMEDYFAFRNFLYLRLDGTTKSEDRAALLKKFNEPGSQYFIFLLSTRAGGLGLNLQAADTVVIFDSDWNPHQDLQAQDRAHRIGQQNEVRVLRLCTVNSVEEKILAAAKYKLNVDQKVIQAGMFDQKSSSHERRAFLQAILEHEEENEEEDEVPDDETLNQMIARREEEFDLFMRMDMDRRREDARNPKRKPRLMEEDELPSWIIKDDAEVERLTCEEEEEKIFGRGSRQRRDVDYSDALTEKQWLRAIEDGNLEEMEEEVRLKKRKRRRNVDKDPAKEDVEKAKKRRGRPPAEKLSPNPPKLTKQMNAIIDTVINYKDRCNVEKVPSNSQLEIEGNSSGRQLSEVFIQLPSRKELPEYYELIRKPVDFKKIKERIRNHKYRSLGDLEKDVMLLCHNAQTFNLEGSQIYEDSIVLQSVFKSARQKIAKEEESEDESNEEEEEEDEEESESEAKSVKVKIKLNKKDDKGRDKGKGKKRPNRGKAKPVVSDFDSDEEQDEREQSEGSGTDDE
B3: Ribose-phosphate pyrophosphokinase 1 (Homo sapiens), P60891 (parent)
chain: MPNIKIFSGSSHQDLSQKIADRLGLELGKVVTKKFSNQETCVEIGESVRGEDVYIVQSGCGEINDNLMELLIMINACKIASASRVTAVIPCFPYARQDKKDKSRAPISAKLVANMLSVAGADHIITMDLHASQIQGFFDIPVDNLYAEPAVLKWIRENISEWRNCTIVSPDAGGAKRVTSIADRLNVDFALIHKERKKANEVDRMVLVGDVKDRVAILVDDMADTCGTICHAADKLLSAGATRVYAILTHGIFSGPAISRINNACFEAVVVTNTIPQEDKMKHCSKIQVIDISMILAEAIRRTHNGESVSYLFSHVPL
partner: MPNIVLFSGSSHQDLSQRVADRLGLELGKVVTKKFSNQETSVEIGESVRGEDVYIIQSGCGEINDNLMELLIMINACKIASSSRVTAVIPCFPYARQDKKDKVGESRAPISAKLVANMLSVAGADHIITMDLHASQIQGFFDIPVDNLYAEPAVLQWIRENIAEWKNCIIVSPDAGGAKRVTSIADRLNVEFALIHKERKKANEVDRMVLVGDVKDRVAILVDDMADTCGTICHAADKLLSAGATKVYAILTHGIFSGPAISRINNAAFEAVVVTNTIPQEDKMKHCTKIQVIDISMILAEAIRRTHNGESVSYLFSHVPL
B4: Keratin, type II cytoskeletal 2 epidermal (Homo sapiens), P35908 (parent)
chain: MSCQISCKSRGRGGGGGGFRGFSSGSAVVSGGSRRSTSSFSCLSRHGGGGGGFGGGGFGSRSLVGLGGTKSISISVAGGGGGFGAAGGFGGRGGGFGGGSSFGGGSGFSGGGFGGGGFGGGRFGGFGGPGGVGGLGGPGGFGPGGYPGGIHEVSVNQSLLQPLNVKVDPEIQNVKAQEREQIKTLNNKFASFIDKVRFLEQQNQVLQTKWELLQQMNVGTRPINLEPIFQGYIDSLKRYLDGLTAERTSQNSELNNMQDLVEDYKKKYEDEINKRTAAENDFVTLKKDVDNAYMIKVELQSKVDLLNQEIEFLKVLYDAEISQIHQSVTDTNVILSMDNSRNLDLDSIIAEVKAQYEEIAQRSKEEAEALYHSKYEELQVTVGRHGDSLKEIKIEISELNRVIQRLQGEIAHVKKQCKNVQDAIADAEQRGEHALKDARNKLNDLEEALQQAKEDLARLLRDYQELMNVKLALDVEIATYRKLLEGEECRMSGDLSSNVTVSVTSSTISSNVASKAAFGGSGGRGSSSGGGYSSGSSSYGSGGRQSGSRGGSGGGGSISGGGYGSGGGSGGRYGSGGGSKGGSISGGGYGSGGGKHSSGGGSRGGSSSGGGYGSGGGGSSSVKGSSGEAFGSSVTFSFR
partner: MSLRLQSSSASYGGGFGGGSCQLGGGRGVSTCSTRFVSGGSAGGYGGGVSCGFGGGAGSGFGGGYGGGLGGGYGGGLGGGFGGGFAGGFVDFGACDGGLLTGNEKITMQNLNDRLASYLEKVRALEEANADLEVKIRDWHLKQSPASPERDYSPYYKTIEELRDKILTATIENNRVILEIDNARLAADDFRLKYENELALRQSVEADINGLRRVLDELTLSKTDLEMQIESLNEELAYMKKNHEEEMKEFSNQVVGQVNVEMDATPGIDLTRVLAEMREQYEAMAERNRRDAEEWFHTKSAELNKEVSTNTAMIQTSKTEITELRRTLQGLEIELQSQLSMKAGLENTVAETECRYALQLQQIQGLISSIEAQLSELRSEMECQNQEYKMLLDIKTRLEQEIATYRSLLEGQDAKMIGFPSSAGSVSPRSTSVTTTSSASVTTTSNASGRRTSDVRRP

Variants of: B1
Conditions: with atf4_human ATF4, P18848
Chain of atf4_human ATF4, P18848 (P18848 whole entry): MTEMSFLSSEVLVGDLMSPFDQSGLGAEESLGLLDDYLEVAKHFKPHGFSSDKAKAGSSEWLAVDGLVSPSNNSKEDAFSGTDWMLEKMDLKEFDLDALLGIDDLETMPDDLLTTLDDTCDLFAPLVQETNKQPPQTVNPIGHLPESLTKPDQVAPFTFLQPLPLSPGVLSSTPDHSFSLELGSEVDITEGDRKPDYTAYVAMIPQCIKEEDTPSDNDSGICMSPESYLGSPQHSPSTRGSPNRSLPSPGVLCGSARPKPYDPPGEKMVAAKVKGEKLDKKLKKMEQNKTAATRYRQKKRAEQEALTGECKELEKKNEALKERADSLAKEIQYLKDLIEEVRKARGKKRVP

effect of a mutation on the interaction	Variant
with no effect	Q84R

Variants of: B1
Conditions: with mdfi_human MDFI

effect of a mutation on the interaction	Variant
with no effect	Q84R

Variants of: B2
Conditions: with sdcb1_human SDCBP

effect of a mutation on the interaction	Variant
with no effect	D1546E

Variants of: B2
Conditions: with sdcb1_human SDCBP
Remark: another data set of the same source

effect of a mutation on the interaction	Variant
with no effect	D1546E

Variants of: B3
Conditions: with PRPS2, P11908-2

effect of a mutation on the interaction	Variant
with no effect	D52H
with no effect	D183H
with no effect	N114S

Variants of: B4
Conditions: with KRT13, P13646

effect of a mutation on the interaction	Variant
with no effect	N186K
with no effect	L484P
disrupting interaction strength	I477N
